Where a chain is given by its changes, count along the chain named. Values joined by “and” are separate entries in the source; they are usually repeats but may differ in a detail not shown here. Equal values may be shown once. Read-outs that look alike come from different tables or passages of the source. Ends that are not written are not given here. * marks the point of attachment. Palmitoyl = CCCCCCCCCCCCCCCC(=O)*
Experiments:
mouse serum albumin = target: T1, mouse serum albumin (mouse, UniProt P07724 25-608); test: monoclonal phage ELISA
T1 construct: also called MSA

rat serum albumin = rat serum albumin (rat, UniProt P02770 25-608); test: monoclonal phage ELISA
Sequence of rat serum albumin (P02770 25-608 limits assumed): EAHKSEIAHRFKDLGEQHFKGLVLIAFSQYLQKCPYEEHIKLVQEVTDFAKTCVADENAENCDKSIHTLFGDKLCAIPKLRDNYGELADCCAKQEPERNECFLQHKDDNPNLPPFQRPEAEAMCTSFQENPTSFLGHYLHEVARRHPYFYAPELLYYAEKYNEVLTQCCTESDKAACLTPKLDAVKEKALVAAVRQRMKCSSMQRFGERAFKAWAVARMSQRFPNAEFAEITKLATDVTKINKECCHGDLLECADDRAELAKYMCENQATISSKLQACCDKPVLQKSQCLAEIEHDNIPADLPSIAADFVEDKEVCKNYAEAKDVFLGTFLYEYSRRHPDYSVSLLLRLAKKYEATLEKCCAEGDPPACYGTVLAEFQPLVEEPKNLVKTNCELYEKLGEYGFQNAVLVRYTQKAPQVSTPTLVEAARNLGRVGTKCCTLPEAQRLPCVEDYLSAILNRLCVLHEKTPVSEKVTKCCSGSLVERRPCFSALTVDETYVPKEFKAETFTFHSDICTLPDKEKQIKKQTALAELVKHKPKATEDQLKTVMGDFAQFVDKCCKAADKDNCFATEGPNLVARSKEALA

[1] = target: T2, human complement component C5 (human, UniProt P01031 19-673; P01031 678-1676); test: SPR multi-cycle kinetics, human C5 immobilised, mean of n=3
T2 construct: mature; Mature C5 is a disulphide-linked beta and alpha chain cut from one precursor; Terbium-labelled in the FRET assays, biotinylated in part of the phage ELISA; also called human C5; C5-Tb
T2 sequence (P01031 19-673 limits assumed, chain 1 of 2): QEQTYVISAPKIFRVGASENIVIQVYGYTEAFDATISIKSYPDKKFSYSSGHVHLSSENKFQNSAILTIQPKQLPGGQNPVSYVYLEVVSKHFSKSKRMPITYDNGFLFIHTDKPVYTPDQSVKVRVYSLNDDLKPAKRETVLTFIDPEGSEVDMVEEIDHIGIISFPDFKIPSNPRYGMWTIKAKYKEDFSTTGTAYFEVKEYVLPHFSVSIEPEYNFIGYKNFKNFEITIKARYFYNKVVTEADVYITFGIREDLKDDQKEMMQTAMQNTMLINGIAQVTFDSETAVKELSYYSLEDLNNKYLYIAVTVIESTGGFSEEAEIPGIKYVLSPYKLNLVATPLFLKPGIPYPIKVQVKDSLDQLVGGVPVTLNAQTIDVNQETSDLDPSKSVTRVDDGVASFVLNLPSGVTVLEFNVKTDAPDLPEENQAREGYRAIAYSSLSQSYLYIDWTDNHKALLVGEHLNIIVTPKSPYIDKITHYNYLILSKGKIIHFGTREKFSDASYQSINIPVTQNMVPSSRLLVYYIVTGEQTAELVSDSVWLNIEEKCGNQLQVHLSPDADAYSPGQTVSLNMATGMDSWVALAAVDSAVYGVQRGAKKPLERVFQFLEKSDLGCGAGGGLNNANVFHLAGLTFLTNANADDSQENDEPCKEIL
T2 sequence (P01031 678-1676 limits assumed, chain 2 of 2): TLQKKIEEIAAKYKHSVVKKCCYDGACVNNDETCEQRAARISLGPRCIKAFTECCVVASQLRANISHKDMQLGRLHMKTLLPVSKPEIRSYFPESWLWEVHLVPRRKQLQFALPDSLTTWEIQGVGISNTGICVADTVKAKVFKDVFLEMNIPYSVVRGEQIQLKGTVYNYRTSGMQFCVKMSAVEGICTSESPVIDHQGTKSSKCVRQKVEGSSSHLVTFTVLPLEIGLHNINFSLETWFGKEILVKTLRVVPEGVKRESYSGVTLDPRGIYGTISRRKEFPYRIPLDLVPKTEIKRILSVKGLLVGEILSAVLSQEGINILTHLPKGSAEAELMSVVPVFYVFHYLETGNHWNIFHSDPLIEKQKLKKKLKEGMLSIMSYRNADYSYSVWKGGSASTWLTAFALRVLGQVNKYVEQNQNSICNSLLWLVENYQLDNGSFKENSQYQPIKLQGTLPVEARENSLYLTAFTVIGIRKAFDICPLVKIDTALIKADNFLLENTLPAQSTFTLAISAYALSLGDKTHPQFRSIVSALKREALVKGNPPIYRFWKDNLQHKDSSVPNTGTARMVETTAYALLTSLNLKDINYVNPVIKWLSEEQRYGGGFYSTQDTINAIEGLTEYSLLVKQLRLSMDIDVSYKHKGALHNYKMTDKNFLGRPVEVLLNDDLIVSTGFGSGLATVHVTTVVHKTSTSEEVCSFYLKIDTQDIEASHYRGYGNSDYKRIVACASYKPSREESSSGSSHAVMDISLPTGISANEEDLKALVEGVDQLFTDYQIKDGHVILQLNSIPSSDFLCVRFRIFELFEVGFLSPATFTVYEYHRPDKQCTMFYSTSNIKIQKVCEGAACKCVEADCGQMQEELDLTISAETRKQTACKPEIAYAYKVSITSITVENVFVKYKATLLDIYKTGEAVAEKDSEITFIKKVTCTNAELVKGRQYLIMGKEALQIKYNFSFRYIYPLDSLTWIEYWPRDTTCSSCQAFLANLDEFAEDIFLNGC

[2] = target: T2, human complement component C5
[3] = target: T2, human complement component C5; remark: listed apart in the source
[4] = target: T2, human complement component C5; remark: listed apart in the source
[5] = target: T2, human complement component C5; test: SPR (Biacore), C5, mean of n=3
[6] = target: T2, human complement component C5; test: cell-based or functional assay
[7] = target: T2, human complement component C5; test: SPR single-cycle kinetics, human C5, n=1
[8] = target: T2, human complement component C5; test: cell-based or functional assay; remark: listed apart in the source

B1: ultralong CDR-H3 of SEQ ID NO: 506 displayed on M13 phage (other)
chain: TTVHQQTQERCPDDYTDRGGCSIPYNCGGSRCCAYGRNGGYGGVSCSRTYEFYVN
notes: not shown: poly-histidine, c-myc tag, M13 pIII
Mouse serum albumin
  binding result: binds
Rat serum albumin
  binding result: binds

B2: ultralong CDR-H3 of SEQ ID NO: 508 displayed on M13 phage (other)
chain: B1 chain with D14N, N26T
notes: as for B1
Mouse serum albumin
  binding result: binds
Rat serum albumin
  binding result: binds

B3: ultralong CDR-H3 of SEQ ID NO: 507 displayed on M13 phage (other)
chain: B1 chain with D14N, N26S, G29D
notes: as for B1
Mouse serum albumin
  binding result: binds
Rat serum albumin
  binding result: binds

B4: ultralong CDR-H3 of SEQ ID NO: 501 displayed on M13 phage (other)
chain: B1 chain with V44N, S45T, F52L, N55E
notes: as for B1
Mouse serum albumin
  binding result: binds
Rat serum albumin
  binding result: binds

B5: ultralong CDR-H3 of SEQ ID NO: 503 displayed on M13 phage (other)
chain: B1 chain with V44I, F52W, N55D
notes: as for B1
Mouse serum albumin
  binding result: binds
Rat serum albumin
  binding result: binds

B6: ultralong CDR-H3 of SEQ ID NO: 500 displayed on M13 phage (other)
chain: B1 chain with V44I
notes: as for B1
Mouse serum albumin
  binding result: binds
Rat serum albumin
  binding result: binds

B7: ultralong CDR-H3 of SEQ ID NO: 505 displayed on M13 phage (other)
chain: B1 chain with N38Y, G40D, V44I
notes: as for B1
Mouse serum albumin
  binding result: binds
Rat serum albumin
  binding result: binds

B8: ultralong CDR-H3 of SEQ ID NO: 502 displayed on M13 phage (other)
chain: B1 chain with N26T
notes: as for B1
Mouse serum albumin
  binding result: binds
Rat serum albumin
  binding result: binds

B9: ultralong CDR-H3 of SEQ ID NO: 504 displayed on M13 phage (other)
chain: B1 chain with N26S, G29D
notes: as for B1
Mouse serum albumin
  binding result: binds
Rat serum albumin
  binding result: binds

## cyclo(VCPDGFNWGYGCAAGSSRFCTRHDWCCYDERADSHTYGFCTGNRV) (also: disulphides formed by free energy method, pairing not given here, Head-to-tail cyclised K8chemFE) [K8 chemFE cyclic]
[1]
  Kd: 28.5 nM
  koff: 0.00259 s⁻¹
  kon: 94000 M⁻¹ s⁻¹

## Palmitoyl-GCPPGYKSGVDCSPGSECKWGCYAVDGRRYGGYGADSGVGS (also: disulphides formed by free energy method, pairing not given here) [K57chemFE-Palmitoyl]
[1]
  Kd: 9.52 nM
  koff: 0.000477 s⁻¹
  kon: 51100 M⁻¹ s⁻¹

B10: ultralong CDR-H3 of SEQ ID NO: 497 displayed on M13 phage (other)
chain: TTVHQKTTRQTSCPDGYIAGDSSCYRWRCRGNNCCKYGENRLLNYYDYTCVPYRDTYEWYVD
notes: as for B1
Mouse serum albumin
  binding result: binds

B11: PGT121 Fab-K57 knob domain fusion protein (Fab)
heavy: QMQLQESGPGLVKPSETLSLTCSVSGASISDSYWSWIRRSPGKGLEWIGYVHKSGDTNYSPSLKSRVNLSLDTSKNQVSLSLVAATAADSGKYYCARTLHGRRIYGSENLYFQGSGCPPGYKSGVDCSPGSECKWGCYAVDGRRYGGYGADSGVENLYFQGSEWFTYFYMDVWGNGTQVTVSSASTKGPSVFPLAPSSKSTSGGTAALGCLVKDYFPEPVTVSWNSGALTSGVHTFPAVLQSSGLYSLSSVVTVPSSSLGTQTYICNVNHKPSNTKVDKRVEPKSCDKTLEENLYFQGSGGSHHHHHHHHHH
light: QSVLTQPPDISVAPGETARISCGEKSLGSRAVQWYQHRAGQAPSLIIYNNQDRPSGIPERFSGSPDSPFGTTATLTITSVEAGDEADYYCHIWDSRVPTKWVFGGGTTLTVLGQPKAAPSVTLFPPSSEELQANKATLVCLISDFYPGAVTVAWKADSSPVKAGVETTTPSKQSNNKYAASSYLSLTPEQWKSHRSYSCQVTHEGSTVEKTVAPTECS
[2]
  Kd: 4.9 nM and 3 nM and 3.4 nM and 3.7 nM
[3]
  Kd: 3.3 nM and 2.3 nM and 3.4 nM and 3 nM
[4]
  Kd: 4.1 nM
  koff: 0.000132 s⁻¹
  kon: 32300 M⁻¹ s⁻¹

B12: PGT121 Fab-K92 knob domain fusion protein (Fab)
heavy: QMQLQESGPGLVKPSETLSLTCSVSGASISDSYWSWIRRSPGKGLEWIGYVHKSGDTNYSPSLKSRVNLSLDTSKNQVSLSLVAATAADSGKYYCARTLHGRRIYGSENLYFQGVTCPEGWSECGVAIYGYECGRWGCGHFLNSGPNISPYVTTGSENLYFQGSEWFTYFYMDVWGNGTQVTVSSASTKGPSVFPLAPSSKSTSGGTAALGCLVKDYFPEPVTVSWNSGALTSGVHTFPAVLQSSGLYSLSSVVTVPSSSLGTQTYICNVNHKPSNTKVDKRVEPKSCDKTLEENLYFQGSGGSHHHHHHHHHH
light: B11 light
[2]
  Kd: 14 nM and 10.3 nM and 15.5 nM and 13.1 nM
[3]
  Kd: 19.3 nM and 7.7 nM and 11.3 nM and 11.9 nM
[4]
  Kd: < 0.1 nM
  koff: < 2.93e-05 s⁻¹
  kon: 28000 M⁻¹ s⁻¹

B13: PGT121 Fab-K149 knob domain fusion protein (Fab)
heavy: QMQLQESGPGLVKPSETLSLTCSVSGASISDSYWSWIRRSPGKGLEWIGYVHKSGDTNYSPSLKSRVNLSLDTSKNQVSLSLVAATAADSGKYYCARTLHGRRIYGSENLYFQGSCPDGFSYRSWDDFCCPMVGRCLAPRNGSENLYFQGSEWFTYFYMDVWGNGTQVTVSSASTKGPSVFPLAPSSKSTSGGTAALGCLVKDYFPEPVTVSWNSGALTSGVHTFPAVLQSSGLYSLSSVVTVPSSSLGTQTYICNVNHKPSNTKVDKRVEPKSCDKTLEENLYFQGSGGSHHHHHHHHHH
light: B11 light
[2]
  Kd: 34.9 nM and 57.6 nM and 30.1 nM and 39.3 nM
[4]
  Kd: 143 nM
  koff: 0.00162 s⁻¹
  kon: 11300 M⁻¹ s⁻¹

B14: PGT121 Fab-K136 knob domain fusion protein (Fab)
heavy: QMQLQESGPGLVKPSETLSLTCSVSGASISDSYWSWIRRSPGKGLEWIGYVHKSGDTNYSPSLKSRVNLSLDTSKNQVSLSLVAATAADSGKYYCARTLHGRRIYGSENLYFQGTCPDNYREVDGCDPYDCCLTTWCTNSYCTRYIENLYFQGSEWFTYFYMDVWGNGTQVTVSSASTKGPSVFPLAPSSKSTSGGTAALGCLVKDYFPEPVTVSWNSGALTSGVHTFPAVLQSSGLYSLSSVVTVPSSSLGTQTYICNVNHKPSNTKVDKRVEPKSCDKTLEENLYFQGSGGSHHHHHHHHHH
light: B11 light
[2]
  Kd: 46.3 nM and 115 nM and 73 nM
[3]
  Kd: 46.3 nM and 23.4 nM and 58.1 nM and 39.8 nM
[4]
  Kd: < 0.1 nM
  koff: < 1e-05 s⁻¹
  kon: 9520 M⁻¹ s⁻¹

B15: ultralong CDR-H3 of SEQ ID NO: 499 displayed on M13 phage (other)
chain: TTVHQQTQKHCPDDDTDRDGCSRPDSRGGSGCGSYGRYGDQGGACCPLTYEFDV
notes: as for B1
Mouse serum albumin
  binding result: binds
Rat serum albumin
  binding result: binds

B16: K57 ultralong CDR-H3-hC3nb1 (bispecific antibody, not shown: a dimerising Fc or GST)
VHH: TTVHQRTIKSGCPPGYKSGVDCSPGSECKWGCYAVDGRRYGGYGADSGVGSTYTHEFYVDAWGQGSSSSGSSSSGQVQLVETGGGLVQAGGSLRLSCAASGSIFSLNAMGWFRQAPGKEREFVATINRSGGRTYYADSVKGRFTISRDNGKNMVYLQMHSLKPEDTAIYYCAAGTGWSPQTDNEYNYWGQGTQVTVSS
notes: tied to the label 'hC3Nb1 N-Term' on that ground; also called hC3Nb1 N-Term
[5]
  Kd: 0.192 nM

B17: hC3nb1-K57 loop 3 with C-terminal single-chain Fc tag (bispecific antibody, not shown: a dimerising Fc or GST)
VHH: QVQLVETGGGLVQAGGSLRLSCAASGSIFSLNAMGWFRQAPGKEREFVATINRSGGRTYYADSVKGSGGGSGCPPGYKSGVDCSPGSECKWGCYAVDGRRYGGYGADSGVSGGGSRFTISRDNGKNMVYLQMHSLKPEDTAIYYCAAGTGWSPQTDNEYNYWGQGTQVTVSS
notes: also called hC3Nb1 Loop 3
[5]
  Kd: 0.596 nM

B18: K92 knob domain peptide, chemically synthesised, free energy method (Example 4) (peptide)
peptide: TCPEGWSECGVAIYGYECGRWGCGHFLNSGPNISPYVTTGS
modifications: disulfide (positions not given here); also: disulphides formed in glutathione redox buffer, pairing not given here
notes: Disulphides formed in glutathione redox buffer
[6]
  Alternative pathway C5b neoepitope ELISA, average Emax: 56.8%
  Alternative pathway C5b neoepitope ELISA, geomean IC50: 46.2 nM
[7]
  Kd: 0.643 nM
  koff: 0.000103 s⁻¹
  kon: 160000 M⁻¹ s⁻¹
[8]
  Classical pathway C5b deposition ELISA, average Emax: -33.9%
  Classical pathway C5b deposition ELISA, geomean IC50: 6.6 nM

B19: hC3nb1-K57 loop 2 with C-terminal single-chain Fc tag (bispecific antibody, not shown: a dimerising Fc or GST)
VHH: QVQLVETGGGLVQAGGSLRLSCAASGSIFSLNAMGWFRQAPSGGGSGCPPGYKSGVDCSPGSECKWGCYAVDGRRYGGYGADSGVSGGGSKEREFVATINRSGGRTYYADSVKGRFTISRDNGKNMVYLQMHSLKPEDTAIYYCAAGTGWSPQTDNEYNYWGQGTQVTVSS
notes: also called hC3Nb1 Loop 2
[5]
  Kd: 0.321 nM

From patent US20240024520A1 (UCB, published 2024)
